Measured values published in US11246958B2, “Haemostatic compositions” (HAEMOSTATIX LIMITED, priority 2015, dated 2022).
Where no end group is shown, it is not given here.

Key:
[1] = target: T1, fibrinogen in human plasma (Homo sapiens, UniProt P02675+P02679); assay: Polymerisation of fibrinogen in human plasma by peptide dendrimers; assay type: biochemical; conditions: 30 μL dendrimer 0.25 mg/ml in 100 μL human plasma, 37° C.
T1 construct: from tissue; host or cells: human plasma
T1 sequence (P02679 27-437 isoform P02679-2 limits assumed): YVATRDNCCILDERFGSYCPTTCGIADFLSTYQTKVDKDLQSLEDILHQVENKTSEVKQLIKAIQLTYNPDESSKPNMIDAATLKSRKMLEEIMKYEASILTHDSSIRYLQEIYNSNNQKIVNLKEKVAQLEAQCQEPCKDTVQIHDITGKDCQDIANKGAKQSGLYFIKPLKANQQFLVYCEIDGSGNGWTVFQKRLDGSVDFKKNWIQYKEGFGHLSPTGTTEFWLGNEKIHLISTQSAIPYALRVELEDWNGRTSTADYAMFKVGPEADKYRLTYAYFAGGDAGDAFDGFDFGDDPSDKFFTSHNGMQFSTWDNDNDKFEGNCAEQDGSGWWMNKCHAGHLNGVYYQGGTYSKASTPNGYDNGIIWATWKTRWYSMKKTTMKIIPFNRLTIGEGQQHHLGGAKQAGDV
T1 sequence (P02675 31-491): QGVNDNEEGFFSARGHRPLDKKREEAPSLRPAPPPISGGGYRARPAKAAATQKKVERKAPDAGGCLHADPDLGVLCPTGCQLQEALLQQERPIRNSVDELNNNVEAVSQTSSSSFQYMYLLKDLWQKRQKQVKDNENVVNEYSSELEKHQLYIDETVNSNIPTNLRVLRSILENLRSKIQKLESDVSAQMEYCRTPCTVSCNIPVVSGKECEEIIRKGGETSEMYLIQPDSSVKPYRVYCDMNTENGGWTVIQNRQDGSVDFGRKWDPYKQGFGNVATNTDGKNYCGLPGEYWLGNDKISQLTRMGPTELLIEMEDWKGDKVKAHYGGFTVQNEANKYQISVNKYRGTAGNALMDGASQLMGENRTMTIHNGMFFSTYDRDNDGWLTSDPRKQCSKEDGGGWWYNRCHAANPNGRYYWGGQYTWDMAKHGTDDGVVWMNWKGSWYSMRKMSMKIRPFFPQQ
T1 sequence (P02671 20-629 partner limits assumed): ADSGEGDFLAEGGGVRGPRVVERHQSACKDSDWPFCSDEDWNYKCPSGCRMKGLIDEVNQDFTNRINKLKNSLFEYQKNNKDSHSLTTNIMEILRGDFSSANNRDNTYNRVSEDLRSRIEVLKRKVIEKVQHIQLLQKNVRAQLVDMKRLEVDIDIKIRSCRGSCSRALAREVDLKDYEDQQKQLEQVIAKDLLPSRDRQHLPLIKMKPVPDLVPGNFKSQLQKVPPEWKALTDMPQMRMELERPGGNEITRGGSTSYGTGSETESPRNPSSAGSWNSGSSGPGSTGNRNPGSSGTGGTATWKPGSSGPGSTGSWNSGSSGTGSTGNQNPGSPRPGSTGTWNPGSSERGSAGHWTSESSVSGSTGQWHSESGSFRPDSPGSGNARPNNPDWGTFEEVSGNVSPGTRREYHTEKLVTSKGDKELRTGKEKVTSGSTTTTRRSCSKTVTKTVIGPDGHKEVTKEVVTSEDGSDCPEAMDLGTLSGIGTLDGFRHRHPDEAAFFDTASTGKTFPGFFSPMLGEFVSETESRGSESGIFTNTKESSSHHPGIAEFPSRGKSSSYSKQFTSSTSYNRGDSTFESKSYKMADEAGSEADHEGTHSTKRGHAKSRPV
Method: 30 μL of each dendrimer (at a concentration of 0.25 mg/ml) was added to 100 μL human plasma at 37° C., and polymerisation of fibrinogen was determined using a Sigma Amelung KC4 Delta coagulation analyzer.

[2] = target: T2, purified human fibrinogen (Homo sapiens, UniProt P02675+P02679); assay: Copolymerisation of peptide dendrimers with purified human fibrinogen, clotting time on KC4 Delta coagulation analyser; assay type: biochemical; conditions: for activity of mixtures of peptide conjugate and peptide dendrimer in copolymerising with fibrinogen: conjugate 2 mg/ml mixed with Peptide Dendrimer No. 3 or 4 at 0.025-0.5 mg/ml
T2 sequence (P02679 27-437 isoform P02679-2 limits assumed): T1 sequence (P02679 27-437 isoform P02679-2 limits assumed)
T2 sequence (P02675 31-491): T1 sequence (P02675 31-491)
T2 sequence (P02671 20-629 partner limits assumed): T1 sequence (P02671 20-629 partner limits assumed)
Method: The ability of Peptide Dendrimer No. 12 to polymerise fibrinogen was assessed. 30 μl of dendrimer in solution, at concentration ranging from 0.005-2 mg/ml, was added to 100 μl purified human fibrinogen at 3 mg/ml (the level of fibrinogen found in the blood). Polymerisation of fibrinogen was analysed using a Sigma Amelung KC4 Delta coagulation analyser.
The ability of Peptide Dendrimer Nos. 4, 5, 10, 11, and 12 to copolymerise with fibrinogen was assessed using the same method described in Example 2. The concentration of each dendrimer was varied from 0.005-0.5 mg/ml.
The ability of the dendrimers to copolymerise with fibrinogen was assessed using the same method described in Example 2, for a concentration of each dendrimer ranging from 0.005-0.5 mg/ml.
Peptide Conjugate No. 1 or 2 (2 mg/ml) was mixed with Peptide Dendrimer No. 3 or 4, and fibrinogen, and the ability of the mixtures to copolymerise with fibrinogen was assessed using the same method described in Example 2, for a concentration of each dendrimer ranging from 0.025-0.5 mg/ml.

Substance | ability to polymerise fibrinogen in human plasma [1] | ability to copolymerise with fibrinogen ([2]; dendrimer 0.005-0.5 mg/ml, fibrinogen 3 mg/ml) | activity of mixtures of peptide conjugate and peptide dendrimer in copolymerising with fibrinogen [2]
Peptide Dendrimer No. 9: three-branch dendrimer, two GPRPFPA peptides and one APFPRPG attached by its amino-terminal end, carboxy-terminal amide (chain 2 APFPRPG-NH2; not fully specified; also: three-branch dendrimer: two GPRPFPA and one APFPRPG attached by amino-terminal end; listed as Homo sapiens) | not able to polymerise fibrinogen in human plasma | very active in copolymerising with fibrinogen | 
Peptide Conjugate No. 1: two GPRP fibrinogen-binding peptides each attached by a linker to a lysine residue, second attached by amino-terminal end and amidated (peptide 2 GPRP-NH2; also: each GPRP attached by a linker to a lysine residue, second attached by amino-terminal end) |  |  | not active
Peptide Conjugate No. 2: GHRPY peptide and reverse sequence YPRHG (amidated), each attached by a linker to a lysine residue (peptide 2 YPRHG-NH2; also: each peptide attached by a linker to a lysine residue) |  |  | synergistic and increased activity
